Results on one substance are retold here after PMC12774641.

In the assay the target is SpβL1 Namat (nicotinamide ADP-ribose transferase), untagged (SpβL1 phage). The assay is described as follows: mass photometry; Refeyn mass photometry; 50 nM Namat after gel filtration. On the technique in general: SEC sorts molecules by how far they enter the pores of the column.

One may read the stoichiometry N as the number of molecules, sites or subunits per partner or assembly. “SpβL1 Namat (nicotinamide ADP-ribose transferase), untagged (enzyme)”: the stoichiometry N turned out to be 2.
